Substitutions are numbered along the chain they refer to. Numbers in names are those of the source. Where “and” joins values, the source holds several entries; their conditions need not be identical. Equal values may be shown once.

By Kd is commonly meant the concentration at which binding is half-saturated. By stoichiometry N is commonly meant a count of units in the complex or per binding partner.

B1: JIP4-N-RH1-lz3 fragment (domain or fragment, UniProt O60271 1-95, looked up)
chain: MELEDGVVYQEEPGGSGAVMSERVSGLAGSIYREFERLIGRYDEEVVKELMPLVVAVLENLDSVFAQDQEHQVELELLRDDNEQLITQYEREKAL
modifications: labelled with a fluorescent dye in the MST assay (legend of Figure 4)
notes: JIP4, N-terminus (17 residues), RH1 domain and first three heptad repeats of LZI; also called wild-type JIP4-N-RH1-lz3
B2: JIP4-RH1-lz3 fragment (domain or fragment, UniProt O60271 18-95, looked up)
chain: AVMSERVSGLAGSIYREFERLIGRYDEEVVKELMPLVVAVLENLDSVFAQDQEHQVELELLRDDNEQLITQYEREKAL
modifications: labelled with a fluorescent dye in the MST assay (legend of Figure 4)
notes: JIP4, RH1 domain and first three heptad repeats of LZI, without the 17-residue N-terminus
B3: JIP3-N-RH1-lz3 L70F-S71A-E72Q-N73D (domain or fragment, mouse, UniProt Q9ESN9-1 1-100, looked up)
chain: MMEIQMDEGGGVVVYQDDYCSGSVMSERVSGLAGSIYREFERLIHCYDEEVVKELMPLVVNVLENLDSVFAQDQEHEVELELLREDNEQLLTQYEREKAL
modifications: labelled with a fluorescent dye in the MST assay (legend of Figure 4)
notes: JIP3, mouse, NP_038959.2, residues 1-100 (N-RH1-lz3), residues changed to those of JIP4; also called JIP3-L70F-S71A-E72Q-N73D; source: E. coli Rosetta, purified (His-Trap, gel filtration, thrombin cleavage, gel filtration); not shown: His tag, N-terminal, cleaved; thioredoxin, N-terminal, cleaved
B4: JIP3-N-RH1-lz3 N61A (domain or fragment, mouse, UniProt Q9ESN9-1 1-100, looked up)
chain: B3 chain with N61A, F70L, A71S, Q72E, D73N
modifications: labelled with a fluorescent dye in the MST assay (legend of Figure 4)
notes: JIP3, mouse, NP_038959.2, residues 1-100 (N-RH1-lz3), residue changed to that of JIP4; also called JIP3-N61A; Asn61 mutant; source: E. coli Rosetta, purified (His-Trap, gel filtration, thrombin cleavage, gel filtration); not shown: His tag, N-terminal, cleaved; thioredoxin, N-terminal, cleaved
B5: JIP3-N-RH1-lz3 E77Q (domain or fragment, mouse, UniProt Q9ESN9-1 1-100, looked up)
chain: B3 chain with F70L, A71S, Q72E, D73N, E77Q
modifications: labelled with a fluorescent dye in the MST assay (legend of Figure 4)
notes: JIP3, mouse, NP_038959.2, residues 1-100 (N-RH1-lz3), residue changed to that of JIP4; also called JIP3-E77Q; source: E. coli Rosetta, purified (His-Trap, gel filtration, thrombin cleavage, gel filtration); not shown: His tag, N-terminal, cleaved; thioredoxin, N-terminal, cleaved
B6: JIP3-N-RH1-lz3 H45G-C46R (domain or fragment, mouse, UniProt Q9ESN9-1 1-100, looked up)
chain: B3 chain with H45G, C46R, F70L, A71S, Q72E, D73N
modifications: labelled with a fluorescent dye in the MST assay (legend of Figure 4)
notes: JIP3, mouse, NP_038959.2, residues 1-100 (N-RH1-lz3), residues changed to those of JIP4; also called JIP3-H45G-C46R; source: E. coli Rosetta, purified (His-Trap, gel filtration, thrombin cleavage, gel filtration); not shown: His tag, N-terminal, cleaved; thioredoxin, N-terminal, cleaved
B7: JIP3-N-RH1-lz3 fragment (domain or fragment, mouse, UniProt Q9ESN9-1 1-100, looked up)
chain: B3 chain with F70L, A71S, Q72E, D73N
modifications: labelled with the dye NHS-NT-488 (Blue-NHS, NanoTemper) in Tables 1 and 3; labelled with NHS-fluorescein (Thermo Fisher Scientific) in Table 2
notes: JIP3, mouse, NP_038959.2, residues 1-100 (N-terminus, RH1 domain and first three heptad repeats of LZI); Unlabelled in SEC-MALS; also called JIP3-WT; wild-type JIP3-N-RH1-lz3; source: E. coli Rosetta, purified (His-Trap, gel filtration, thrombin cleavage, gel filtration); not shown: His tag, N-terminal, cleaved; thioredoxin, N-terminal, cleaved
B8: JIP3-N-RH1-LZI fragment (domain or fragment, mouse, UniProt Q9ESN9-1 1-187, looked up)
chain: MMEIQMDEGGGVVVYQDDYCSGSVMSERVSGLAGSIYREFERLIHCYDEEVVKELMPLVVNVLENLDSVLSENQEHEVELELLREDNEQLLTQYEREKALRKQAEEKFIEFEDALEQEKKELQIQVEHYEFQTRQLELKAKNYADQISRLEERESEMKKEYNALHQRHTEMIQTYVEHIERSKMQQV
modifications: labelled with the dye NHS-NT-488 (Protein Labelling Kit Blue-NHS, NanoTemper) in the MST assay
notes: Unlabelled in SEC-MALS; also called JIP3-N-RH1-LZ1; JIP3-Nter; source: E. coli Rosetta, purified (His-Trap, gel filtration, thrombin cleavage, gel filtration); not shown: His tag, N-terminal, cleaved; thioredoxin, N-terminal, cleaved
B9: JIP3-RH1-lz3 fragment (domain or fragment, mouse, UniProt Q9ESN9-1 22-100, looked up)
chain: GSVMSERVSGLAGSIYREFERLIHCYDEEVVKELMPLVVNVLENLDSVLSENQEHEVELELLREDNEQLLTQYEREKAL
modifications: labelled with the dye NHS-NT-488 (Protein Labelling Kit Blue-NHS, NanoTemper) in the MST assay
notes: JIP3, mouse, NP_038959.2, residues 22-100 (RH1 domain and first three heptad repeats of LZI); Unlabelled in SEC-MALS; source: E. coli Rosetta, purified (His-Trap, gel filtration, thrombin cleavage, gel filtration); not shown: His tag, N-terminal, cleaved; thioredoxin, N-terminal, cleaved
B10: JIP3-RH1-LZI fragment (domain or fragment, UniProt Q9ESN9 22-187, looked up)
chain: GSVMSERVSGLAGSIYREFERLIHCYDEEVVKELMPLVVNVLENLDSVLSENQEHEVELELLREDNEQLLTQYEREKALRKQAEEKFIEFEDALEQEKKELQIQVEHYEFQTRQLELKAKNYADQISRLEERESEMKKEYNALHQRHTEMIQTYVEHIERSKMQQV
modifications: labelled with the dye NHS-NT-488 (Protein Labelling Kit Blue-NHS, NanoTemper) in the MST assay
notes: JIP3, RH1 domain followed by the entire LZI coiled-coil, without the N-terminus; also called RH1-LZ1
B11: JIP3-N-RH1-lz3 E39A (domain or fragment, mouse, UniProt Q9ESN9-1 1-100, looked up)
chain: B3 chain with E39A, F70L, A71S, Q72E, D73N
modifications: labelled with NHS-fluorescein (Thermo Fisher Scientific)
notes: JIP3, mouse, NP_038959.2, residues 1-100 (N-RH1-lz3); also called JIP3-E39A; source: E. coli Rosetta, purified (His-Trap, gel filtration, thrombin cleavage, gel filtration); not shown: His tag, N-terminal, cleaved; thioredoxin, N-terminal, cleaved
B12: JIP3-N-RH1-lz3 E41A (domain or fragment, mouse, UniProt Q9ESN9-1 1-100, looked up)
chain: B3 chain with E41A, F70L, A71S, Q72E, D73N
modifications: labelled with NHS-fluorescein (Thermo Fisher Scientific)
notes: JIP3, mouse, NP_038959.2, residues 1-100 (N-RH1-lz3); also called JIP3-E41A; source: E. coli Rosetta, purified (His-Trap, gel filtration, thrombin cleavage, gel filtration); not shown: His tag, N-terminal, cleaved; thioredoxin, N-terminal, cleaved
B13: JIP3-N-RH1-lz3 R38A (domain or fragment, mouse, UniProt Q9ESN9-1 1-100, looked up)
chain: B3 chain with R38A, F70L, A71S, Q72E, D73N
modifications: labelled with NHS-fluorescein (Thermo Fisher Scientific)
notes: JIP3, mouse, NP_038959.2, residues 1-100 (N-RH1-lz3); also called JIP3-R38A; source: E. coli Rosetta, purified (His-Trap, gel filtration, thrombin cleavage, gel filtration); not shown: His tag, N-terminal, cleaved; thioredoxin, N-terminal, cleaved
B14: JIP3-N-RH1-lz3 N65A (domain or fragment, mouse, UniProt Q9ESN9-1 1-100, looked up)
chain: B3 chain with N65A, F70L, A71S, Q72E, D73N
modifications: labelled with NHS-fluorescein (Thermo Fisher Scientific)
notes: JIP3, mouse, NP_038959.2, residues 1-100 (N-RH1-lz3); also called JIP3-N65A; source: E. coli Rosetta, purified (His-Trap, gel filtration, thrombin cleavage, gel filtration); not shown: His tag, N-terminal, cleaved; thioredoxin, N-terminal, cleaved
B15: JIP3-N-RH1-lz3 E27A (domain or fragment, mouse, UniProt Q9ESN9-1 1-100, looked up)
chain: B3 chain with E27A, F70L, A71S, Q72E, D73N
modifications: labelled with NHS-fluorescein (Thermo Fisher Scientific)
notes: JIP3, mouse, NP_038959.2, residues 1-100 (N-RH1-lz3); also called JIP3-E27A; source: E. coli Rosetta, purified (His-Trap, gel filtration, thrombin cleavage, gel filtration); not shown: His tag, N-terminal, cleaved; thioredoxin, N-terminal, cleaved
B16: JIP3-N-RH1-lz3 R42A (domain or fragment, mouse, UniProt Q9ESN9-1 1-100, looked up)
chain: B3 chain with R42A, F70L, A71S, Q72E, D73N
modifications: labelled with NHS-fluorescein (Thermo Fisher Scientific)
notes: JIP3, mouse, NP_038959.2, residues 1-100 (N-RH1-lz3); also called JIP3-R42A; source: E. coli Rosetta, purified (His-Trap, gel filtration, thrombin cleavage, gel filtration); not shown: His tag, N-terminal, cleaved; thioredoxin, N-terminal, cleaved
B17: JIP3-N-RH1-lz3 E54A (domain or fragment, mouse, UniProt Q9ESN9-1 1-100, looked up)
chain: B3 chain with E54A, F70L, A71S, Q72E, D73N
modifications: labelled with NHS-fluorescein (Thermo Fisher Scientific)
notes: JIP3, mouse, NP_038959.2, residues 1-100 (N-RH1-lz3); also called JIP3-E54A; source: E. coli Rosetta, purified (His-Trap, gel filtration, thrombin cleavage, gel filtration); not shown: His tag, N-terminal, cleaved; thioredoxin, N-terminal, cleaved

The target in the first series is T1, KIF5B-CC3b-CC4-dt fragment (human, UniProt P33176 771-963).
T1 construct: kinesin-1 heavy chain KIF5B, human, NP_004512.1, residues 771-963 (last part of CC3, CC4 and distal tail); pET28 plasmid, NdeI/XhoI; the methods call it CC3-CC4-dt; also called KIF5B-CC3-CC4-dt; KIF5B-Tail; source: E. coli Rosetta, purified (His-Trap, Superdex 75 gel filtration); not shown: His6, N-terminal, kept
T1 sequence (P33176 771-963): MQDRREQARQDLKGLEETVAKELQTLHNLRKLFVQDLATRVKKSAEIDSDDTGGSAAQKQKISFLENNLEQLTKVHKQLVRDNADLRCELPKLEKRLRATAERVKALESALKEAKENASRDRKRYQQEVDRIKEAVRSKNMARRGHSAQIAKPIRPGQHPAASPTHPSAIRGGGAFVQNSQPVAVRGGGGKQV
Kind of series: MST; labelled JIP3/4 fragment (Blue-NHS dye) constant at 20 nM, KIF5B fragment titrated 120 pM to 4 uM (up to 38.2 uM when needed); 50 mM Tris pH 8.0, 200 mM NaCl, 10 mM MgCl2, 0.05% Tween 20; room temperature; Monolith NT.115, premium capillaries, MST-on 0.5-1.5 s; 1:1 Kd fit; three replicates; the paper calls its affinities relative measurements. The settings on record: both partners purified.
As to B1, the Kd came out at 777 ± 146 nM.
The same measure, in the same setting: then B2, with 682 ± 187 nM; and B3, with 47.5 ± 4.6 nM; and B4, with 29.9 ± 3 nM.
The same measure, in the same setting: for B5 the value was 46.8 ± 6.8 nM; for B6, 198 ± 27.3 nM.
The molecule B7 came in with a Kd of 20.6 ± 2.6 nM.

For another series, the target named is T2, KIF5B-CC3b-CC4 fragment, with N-terminal 6-histidine tag (human, UniProt P33176 771-914).
T2 construct: kinesin-1 heavy chain KIF5B, human, NP_004512.1, residues 771-914 (last part of CC3 and CC4); also called CC3-CC4; source: E. coli Rosetta, purified (His-Trap, Superdex 75 gel filtration); not shown: His6, N-terminal, kept
T2 sequence (P33176 771-914): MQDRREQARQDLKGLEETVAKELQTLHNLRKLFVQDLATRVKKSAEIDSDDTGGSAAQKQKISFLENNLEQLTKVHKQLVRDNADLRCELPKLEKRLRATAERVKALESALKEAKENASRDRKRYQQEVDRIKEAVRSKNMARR
The description is as above. Conditions: both partners purified.
On to B7, for which binding was characterised by a dissociation constant (Kd) of 77.7 ± 12 nM.

In the next series the target is T1, KIF5B-CC3b-CC4-dt fragment. Described as above. The settings on record: both partners purified. The source holds these as a separate data set.
B8: the Kd was determined as 18.8 ± 4 nM.
For the molecule B9, the Kd is 79.3 ± 15.9 nM.
Turning to B7, the Kd was 14.7 nM and 18.3 nM.
Still for that read-out and setting: then B10, with 50.5 ± 12.9 nM.

The next series deals with the molecule itself. Kind of series: SEC-MALS; JIP3/4-Nter fragments in solution, single peak; dimer; conditions not shown (Fig. S1B, Table S2).
Details: not given
For orientation: Size exclusion chromatography separates by hydrodynamic size, large species first.
Regarding B8, the “stoichiometry N” value came out at 2.
With B1, the “stoichiometry N” value was determined as 2.
B9: the “stoichiometry N” value stood at 2.
Still for that read-out and setting: then B2, with 2; and B7, with 2.

The target in the next series is T3, KIF5B-CC3b-CC4 fragment, 6-histidine tag removed (human, UniProt P33176 771-914).
T3 construct: kinesin-1 heavy chain KIF5B, human, NP_004512.1, residues 771-914 (last part of CC3 and CC4); source: E. coli Rosetta, purified (His-Trap, Superdex 75 gel filtration); not shown: His6, N-terminal, cleaved
T3 sequence (P33176 771-914): as above
Kind of series: MST + other fluorescence titration; JIP3-N-RH1-lz3 wild type and alanine mutants labelled with NHS-fluorescein, constant at 20 nM; KIF5B-CC3b-CC4 without His tag titrated; 50 mM Tris pH 8.0, 200 mM NaCl, 10 mM MgCl2, 0.05% Tween 20; room temperature; Monolith NT.115; the change in overall fluorescence intensity was used for the Kd; 1:1 fit. Conditions: both partners purified.
On to B11, for which the Kd amounted to 395 ± 137 nM.
On the same count and under the same terms, then B12, with 204 ± 57.8 nM; and B13, with 151 ± 27.8 nM; and B14, with 118 ± 23 nM.
In the case of B7, the Kd was 148 ± 21.4 nM.
On to B15, for which the Kd was 215 ± 57.3 nM.
As for B16, the Kd amounted to 90.8 ± 12.6 nM.
Same read-out and setting: for B17 the value was 226 ± 26.4 nM.
